Measurements taken from patent US20220298217A1 (FLAGSHIP PIONEERING INNOVATIONS VI, published 2022).
“And” between values parts separate entries of the source, which are not always exact repeats. Equal entries are not always repeated. Blank lines part the entries; values can stand above or below the binder they belong to.

Experiments:
[1] = target: T1, Flag-PTHR1-YFP (parathyroid hormone receptor 1) expressed in transfected HEK293T cells (human, UniProt Q03431 27-593); assay: cell-based or functional assay
T1 sequence (looked up): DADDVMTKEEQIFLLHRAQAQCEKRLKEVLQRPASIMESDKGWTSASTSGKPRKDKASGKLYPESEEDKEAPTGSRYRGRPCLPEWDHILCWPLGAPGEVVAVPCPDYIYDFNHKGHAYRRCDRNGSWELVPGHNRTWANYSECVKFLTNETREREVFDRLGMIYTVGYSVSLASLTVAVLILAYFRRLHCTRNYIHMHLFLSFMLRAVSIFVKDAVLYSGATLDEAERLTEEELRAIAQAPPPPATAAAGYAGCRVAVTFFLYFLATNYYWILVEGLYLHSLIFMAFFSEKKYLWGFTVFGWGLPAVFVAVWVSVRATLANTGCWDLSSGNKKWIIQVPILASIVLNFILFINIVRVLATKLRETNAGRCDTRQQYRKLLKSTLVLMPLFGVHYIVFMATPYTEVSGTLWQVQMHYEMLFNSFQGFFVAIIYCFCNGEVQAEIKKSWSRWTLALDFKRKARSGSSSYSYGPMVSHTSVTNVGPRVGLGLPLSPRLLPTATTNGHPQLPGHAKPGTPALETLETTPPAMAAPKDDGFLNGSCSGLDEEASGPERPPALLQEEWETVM

[2] = target: T2, PTHR1 on CHO-K1/Ga15/PTHR1 cells (UniProt Q03431 27-593, limits assumed); assay: cell-based or functional assay
T2 sequence (looked up): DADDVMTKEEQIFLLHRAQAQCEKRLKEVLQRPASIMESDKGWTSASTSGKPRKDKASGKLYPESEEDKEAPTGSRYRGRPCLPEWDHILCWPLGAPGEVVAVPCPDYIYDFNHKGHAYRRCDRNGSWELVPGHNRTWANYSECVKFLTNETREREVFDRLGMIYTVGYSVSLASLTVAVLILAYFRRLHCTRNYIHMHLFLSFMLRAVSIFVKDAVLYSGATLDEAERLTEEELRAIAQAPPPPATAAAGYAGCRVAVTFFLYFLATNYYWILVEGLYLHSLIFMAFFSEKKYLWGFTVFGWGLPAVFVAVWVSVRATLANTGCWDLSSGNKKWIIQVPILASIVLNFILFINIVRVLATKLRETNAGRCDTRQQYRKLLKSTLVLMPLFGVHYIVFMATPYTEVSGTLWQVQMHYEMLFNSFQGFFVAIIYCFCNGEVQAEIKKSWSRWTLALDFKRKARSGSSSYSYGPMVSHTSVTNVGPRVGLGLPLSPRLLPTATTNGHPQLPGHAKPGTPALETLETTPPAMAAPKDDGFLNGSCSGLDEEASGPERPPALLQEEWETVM

Binder: GVAMLQILHDKAKVRAEYELREMLLRLLEEIF [R2-11]
cAMP accumulation (HTRF): -log10EC50 [2]: -5.7 -log10EC50 (as headed)
cAMP accumulation (HTRF): Emax [2]: 60.8%

Binder: SVMMIQVMHDLAKIRAEYELREMLLRLLEEIF [R2-8, listing 1 of 2 here]
arrestin 1, plate 9: -log10EC50 [1]: -8.43 -log10EC50
arrestin 1, plate 9: Emax [1]: 6.29
arrestin 2, plate 10: -log10EC50 [1]: -9.46 -log10EC50

Binder: GVAMIQIMHDIAKIRAEYELREMLLRLLEEIF [R2-2, listing 1 of 2 here]
cAMP accumulation (HTRF): -log10EC50 [2]: -6.73 -log10EC50 (as headed)
cAMP accumulation (HTRF): Emax [2]: 101%

Binder: GVYAIQAMHDLAKIRAEYELREMLLRLLEEIF [R2-10]
cAMP accumulation (HTRF): -log10EC50 [2]: -4.49 -log10EC50 (as headed)
cAMP accumulation (HTRF): Emax [2]: 1680%

Binder: GVAMIQIMHDIAKIRAEYELREMLLRLLEEIF [R2-2, listing 2 of 2 here]
arrestin 1, plate 7: -log10EC50 [1]: -14 -log10EC50 and -12.2 -log10EC50
arrestin 2, plate 8: -log10EC50 [1]: 5.1 -log10EC50 and -14.8 -log10EC50

Binder: SVMMIQVMHDLAKIRAEYELREMLLRLLEEIF [R2-8, listing 2 of 2 here]
cAMP accumulation (HTRF): -log10EC50 [2]: -7.5 -log10EC50 (as headed)
cAMP accumulation (HTRF): Emax [2]: 19.9%

Binder: AVAEIQLMHQRAKWELEYELFEMFLKLLEEIF [I1 (R1-100)]
arrestin 1, plate 7: -log10EC50 [1]: -6.22 -log10EC50 (2×) and -6.24 -log10EC50
arrestin 2, plate 8: -log10EC50 [1]: -5.41 -log10EC50 and -7.67 -log10EC50 and -6.27 -log10EC50

Binder: AVATIQLMTDIAKIRAEYELREMLLRLLEEIF [R2-6]
cAMP accumulation (HTRF): -log10EC50 [2]: 3.88 -log10EC50 (as headed)
cAMP accumulation (HTRF): Emax [2]: 294%

Binder: GIAVITLMDLRAYLRAEYELREMLLRLLEEIF [R2-13, listing 1 of 2 here]
arrestin 1, plate 15: -log10EC50 [1]: -8.79 -log10EC50
arrestin 1, plate 15: Emax [1]: 6.38
arrestin 2, plate 16: -log10EC50 [1]: -14 -log10EC50
arrestin 2, plate 16: Emax [1]: 6.59

Binder: GIAVFTIMHLRIYLRAEYELREMLLRLLEEIF [R2-17]
cAMP accumulation (HTRF): -log10EC50 [2]: -3.35 -log10EC50 (as headed)
cAMP accumulation (HTRF): Emax [2]: 39.7%

Binder: LILVEQLMDLRAYLRAEYELREMLLRLLEEIF [R2-16]
cAMP accumulation (HTRF): -log10EC50 [2]: -4.71 -log10EC50 (as headed)
cAMP accumulation (HTRF): Emax [2]: 48.7%

Binder: GIAVITLMDLRAYLRAEYELREMLLRLLEEIF [R2-13, listing 2 of 2 here]
cAMP accumulation (HTRF): -log10EC50 [2]: -5.31 -log10EC50 (as headed)
cAMP accumulation (HTRF): Emax [2]: 116%

Binder: GIAVLTILDLRAKLRAEYELREMLLRLLEEIF [R2-14]
cAMP accumulation (HTRF): -log10EC50 [2]: -11.3 -log10EC50 (as headed)
cAMP accumulation (HTRF): Emax [2]: 117%

Binder: GVAELQLMHDLAKIRAEYELREMLLRLLEEIF [R2-1, listing 1 of 2 here]
arrestin 1, plate 7: -log10EC50 [1]: -15 -log10EC50
arrestin 1, plate 7: Emax [1]: 6.35
arrestin 2, plate 8: -log10EC50 [1]: -9.21 -log10EC50
arrestin 2, plate 8: Emax [1]: 6.41

Binder: GVVMLQFMHDVAKIRAEYELREMLLRLLEEIF [R2-9]
cAMP accumulation (HTRF): -log10EC50 [2]: 110 -log10EC50 (as headed)
cAMP accumulation (HTRF): Emax [2]: 665%

Binder: GVAEIQLMHDIPVIRAEYELREMLLRLLEEIF [R2-3]
cAMP accumulation (HTRF): -log10EC50 [2]: -4.93 -log10EC50 (as headed)
cAMP accumulation (HTRF): Emax [2]: 260%

Binder: GVALLQIVHDFAKIRAEYELREMLLRLLEEIF [R2-5]
cAMP accumulation (HTRF): Emax [2]: 1580%

Binder: GVAELQLMHFRALLRAEYELREMLLRLLEEIF [R2-7]
cAMP accumulation (HTRF): -log10EC50 [2]: -1.58 -log10EC50 (as headed)
cAMP accumulation (HTRF): Emax [2]: 823%

Binder: GVAEIQLMVDLDIIRAEYELREMLLRLLEEIF [R2-12]
cAMP accumulation (HTRF): -log10EC50 [2]: -3.86 -log10EC50 (as headed)
cAMP accumulation (HTRF): Emax [2]: 154%

Binder: GVAELQLMHDLAKIRAEYELREMLLRLLEEIF [R2-1, listing 2 of 2 here]
cAMP accumulation (HTRF): -log10EC50 [2]: -7.02 -log10EC50 (as headed)
cAMP accumulation (HTRF): Emax [2]: 102%

Binder: GVSMLQIMHDLAVIRAEYELREMLLRLLEEIF [R2-4]
cAMP accumulation (HTRF): -log10EC50 [2]: -5.87 -log10EC50 (as headed)
cAMP accumulation (HTRF): Emax [2]: 10.6%

Second part, the binder after the results:

arrestin 1, plate 1: -log10EC50 [1]: -8.58 -log10EC50 and -8.76 -log10EC50 and -8.45 -log10EC50
arrestin 2, plate 2: -log10EC50 [1]: -8.52 -log10EC50 and -8.51 -log10EC50 and -8.44 -log10EC50
Binder: AVAEIQLMHQRAKWIQDARRRAFLHKLIAEIH [LA-PM-FL (R1-81)]

arrestin 1, plate 15: -log10EC50 [1]: -8.27 -log10EC50 and -8.59 -log10EC50
arrestin 2, plate 16: -log10EC50 [1]: -8.37 -log10EC50 and -8.76 -log10EC50
Binder: AVAEIQLMHQRAKWKLELELKVKLLEILKDVY [R2-25]

arrestin 1, plate 21: -log10EC50 [1]: -10.7 -log10EC50
arrestin 1, plate 21: Emax [1]: 6.36
arrestin 2, plate 22: -log10EC50 [1]: -14 -log10EC50
arrestin 2, plate 22: Emax [1]: 6.45
Binder: AVAEIQLMHQRAKWELLEELLKILLELLKEYI [R2-38]

arrestin 1, plate 15: -log10EC50 [1]: -5.92 -log10EC50
arrestin 1, plate 15: Emax [1]: 32.9
arrestin 1, plate 25: -log10EC50 [1]: -13.8 -log10EC50
arrestin 1, plate 25: Emax [1]: 6.47
arrestin 2, plate 26: -log10EC50 [1]: -13.9 -log10EC50
arrestin 2, plate 26: Emax [1]: 6.62
Binder: GVAMLQIMHDLAKIKQELELKDSMKKILEDVL [R2-50]

cAMP accumulation (HTRF): -log10EC50 [2]: -2.23 -log10EC50 (as headed)
cAMP accumulation (HTRF): Emax [2]: 36.6%
Binder: SIIGEQLMLLRALLRAEYELREMLLRLLEEIF [R2-18]

arrestin 1, plate 17: -log10EC50 [1]: -15 -log10EC50
arrestin 1, plate 17: Emax [1]: 6.35
arrestin 2, plate 18: -log10EC50 [1]: -6.1 -log10EC50
arrestin 2, plate 18: Emax [1]: 18.5
Binder: AVAEIQLMHQRAKWGLDLELAVKLQEILKDVL [R2-28]

arrestin 1, plate 21: -log10EC50 [1]: -8.42 -log10EC50
arrestin 1, plate 21: Emax [1]: 6.44
arrestin 2, plate 22: -log10EC50 [1]: -6.03 -log10EC50
arrestin 2, plate 22: Emax [1]: 23.7
Binder: AVAEIQLMHQRAKWEIQEIGIKITLDLLQTLK [R2-41]

arrestin 1, plate 25: -log10EC50 [1]: -4.53 -log10EC50
arrestin 1, plate 25: Emax [1]: 12.5
arrestin 2, plate 26: -log10EC50 [1]: -13.8 -log10EC50
arrestin 2, plate 26: Emax [1]: 6.47
Binder: GIAVITLMVLRALLELQEIGRKITLELLKEYI [R2-51]

arrestin 1, plate 5: -log10EC50 [1]: -5.38 -log10EC50 and -8.1 -log10EC50 and -6.02 -log10EC50
arrestin 1, plate 25: -log10EC50 [1]: -11.5 -log10EC50
arrestin 1, plate 25: Emax [1]: 10.3
arrestin 2, plate 6: -log10EC50 [1]: -6.2 -log10EC50 and -5.16 -log10EC50 and -6.19 -log10EC50
arrestin 2, plate 26: -log10EC50 [1]: -6.36 -log10EC50
arrestin 2, plate 26: Emax [1]: 21.5
Binder: AVAEIQLMHQRAKWELEFELFREFLKLLVDFF [I3 (R1-97)]

arrestin 1, plate 13: -log10EC50 [1]: -5.72 -log10EC50
arrestin 1, plate 13: Emax [1]: 15.1
arrestin 1, plate 23: -log10EC50 [1]: -15.4 -log10EC50
arrestin 1, plate 23: Emax [1]: 6.53
arrestin 2, plate 24: -log10EC50 [1]: -10.7 -log10EC50
arrestin 2, plate 24: Emax [1]: 6.67
Binder: AVAEIQLMHQRAKWKILEELLKILIDLLKQYI [R2-48]

arrestin 1, plate 11: -log10EC50 [1]: -6.24 -log10EC50
arrestin 1, plate 11: Emax [1]: 14.7
arrestin 1, plate 21: -log10EC50 [1]: -5.44 -log10EC50
arrestin 1, plate 21: Emax [1]: 11.4
arrestin 2, plate 22: -log10EC50 [1]: -6.07 -log10EC50
arrestin 2, plate 22: Emax [1]: 20.9
Binder: AVAEIQLMHQRAKWDLLIELVKLLHELLKEYI [R2-40]

cAMP accumulation (HTRF): -log10EC50 [2]: -4.69 -log10EC50 (as headed)
cAMP accumulation (HTRF): Emax [2]: 324%
Binder: PIPVKDIMDLRAYLRAEYELREMLLRLLEEIF [R2-19]

cAMP accumulation (HTRF): -log10EC50 [2]: -4.67 -log10EC50 (as headed)
cAMP accumulation (HTRF): Emax [2]: 47%
Binder: LILVKKIIDLRAYLRAEYELREMLLRLLEEIF [R2-21]

cAMP accumulation (HTRF): -log10EC50 [2]: -10.1 -log10EC50 (as headed)
cAMP accumulation (HTRF): Emax [2]: 17.6%
Binder: GIAVITIMIDYAKLRAEYELREMLLRLLEEIF [R2-22]

arrestin 1, plate 13: -log10EC50 [1]: -5.84 -log10EC50
arrestin 1, plate 13: Emax [1]: 15.7
arrestin 1, plate 23: -log10EC50 [1]: -6.19 -log10EC50 and -5.44 -log10EC50
arrestin 2, plate 24: -log10EC50 [1]: -5.46 -log10EC50 and -5.86 -log10EC50
Binder: AVAEIQLMHQRAKWDVLIELAKLLAELLRRYH [R2-47]

arrestin 1, plate 25: -log10EC50 [1]: -9.83 -log10EC50
arrestin 1, plate 25: Emax [1]: 6.37
arrestin 2, plate 26: Emax [1]: 6.48
Binder: GIAVITLMLLRAYLELLEELVKILHELLRRYH [R2-52]

arrestin 1, plate 17: -log10EC50 [1]: -7.89 -log10EC50 and -7.57 -log10EC50
arrestin 2, plate 18: -log10EC50 [1]: -7.79 -log10EC50 and -7.9 -log10EC50
Binder: AVAEIQLMHQRAKWGLELELKEKLRKILEDVY [R2-26]
